Measured values published in PMC9398908, “GLP-1-mediated delivery of tesaglitazar improves obesity and glucose metabolism in male mice” (Nature Metabolism, 2022).

Columns and labels:
[1] = in vivo; set-up: species or system C57BL6J mice; details: mouse
Method: (§1) Plasma concentration-time profiles were analysed in C57BL6J mice and Sprague Dawley rats by a non-compartmental method using sparse sampling in Pharsight Phoenix WinNonLin v.6.4 software, and the resulting terminal half-life (T1/2), maximum plasma concentration (Cmax), time for maximum plasma concentration (Tmax), and AUC from zero to last valid measurable concentration-time point (AUC0-t) were determined.

[2] = in vivo; set-up: species or system Sprague Dawley rats; details: Sprague Dawley, rat
Method: as §1

[3] = system: C57BL/6J DIO mice; assay: Urinary albumin:creatinine ratio in DIO mice (Extended Data Fig. 2g); format: in vivo, mouse; details: 14-day treatment, 50 nmol kg−1 per day, in words
Source text: Frozen urine samples from heterozygous GIPR^dn mice in a CD1 background (n = 3) served as positive controls. […] For each treatment group, uACR was computed as a ratio of urinary albumin (mg ml^−1) to urinary creatinine (mg ml^−1).

[4] = C57BL6J, 100 nmol/kg, concentration (PK, Extended Data Fig. 1c)
[5] = 100 nmol/kg, concentration (PK, Extended Data Fig. 1c)
[6] = male, 100 nmol/kg, concentration (PK, Extended Data Fig. 1c)
[7] = male, C57BL6/J, 100 nmol/kg, concentration (PK, Extended Data Fig. 1c)

SMILES	level at time molar at 0.5 h [1, 4] [nM]	level at time molar at 1 h [1, 4] [nM]	AUC(0-t) ([1]; male, C57BL6/J) [µM·h]	Cmax ([1]; male, C57BL6/J) [nM]	level at time molar at 4 h [2, 5] [nM]	AUC(0-t) ([2]; male) [µM·h]	Cmax ([2]; male) [nM]	half-life ([2]; male) [h]	level at time molar at 0.5 h [2, 6] [nM]	level at time molar at 2 h [2, 6] [nM]	level at time molar at 4 h [2, 6] [nM]	level at time molar at 10 min [1, 4] [nM]	half-life ([1]; male, C57BL6/J) [h]	level at time molar at 2 h [1, 7] [nM]	level at time molar at 4 h [1, 7] [nM]	level at time molar at 10 min [2, 6] [nM]	level at time molar at 1 h [2, 6] [nM]	urinary albumin:creatinine ratio [3]
CC[C@H](C)[C@H](NC(=O)[C@H](Cc1ccccc1)NC(=O)[C@H](CCC(=O)O)NC(=O)[C@H](CCCCN)NC(=O)[C@H](C)NC(=O)[C@H](C)NC(=O)[C@H](CCC(N)=O)NC(=O)[C@H](CCC(=O)O)NC(=O)[C@H](CCC(=O)O)NC(=O)[C@H](CC(C)C)NC(=O)[C@H](Cc1ccc(O)cc1)NC(=O)[C@H](CO)NC(=O)[C@H](CO)NC(=O)[C@@H](NC(=O)[C@H](CC(=O)O)NC(=O)[C@H](CO)NC(=O)[C@@H](NC(=O)[C@H](Cc1ccccc1)NC(=O)[C@@H](NC(=O)CNC(=O)[C@H](CCC(=O)O)NC(=O)C(C)(C)NC(=O)[C@@H](N)Cc1c[nH]cn1)[C@@H](C)O)[C@@H](C)O)C(C)C)C(=O)N[C@@H](C)C(=O)N[C@@H](Cc1c[nH]c2ccccc12)C(=O)N[C@@H](CC(C)C)C(=O)N[C@H](C(=O)N[C@@H](CCCCN)C(=O)NCC(=O)NCC(=O)N1CCC[C@H]1C(=O)N[C@@H](CO)C(=O)N[C@@H](CO)C(=O)NCC(=O)N[C@@H](C)C(=O)N1CCC[C@H]1C(=O)N1CCC[C@H]1C(=O)N1CCC[C@H]1C(=O)N[C@@H](CO)C(=O)N[C@@H](CCCCN)C(N)=O)C(C)C [GLP-1RA, GLP-1 Aib2 Glu16 CEX Lys40]	435	219	0.399	361	10.7	0.131	41.3	2.13	30.7	26.1	15.8							
CCO[C@@H](Cc1ccc(OCCc2ccc(OS(C)(=O)=O)cc2)cc1)C(=O)N[C@@H](CCC(=O)NCCCC[C@H](NC(=O)[C@H](CO)NC(=O)[C@@H]1CCCN1C(=O)[C@@H]1CCCN1C(=O)[C@@H]1CCCN1C(=O)[C@H](C)NC(=O)CNC(=O)[C@H](CO)NC(=O)[C@H](CO)NC(=O)[C@@H]1CCCN1C(=O)CNC(=O)CNC(=O)[C@H](CCCCN)NC(=O)[C@@H](NC(=O)[C@H](CC(C)C)NC(=O)[C@H](Cc1c[nH]c2ccccc12)NC(=O)[C@H](C)NC(=O)[C@@H](NC(=O)[C@H](Cc1ccccc1)NC(=O)[C@H](CCC(=O)O)NC(=O)[C@H](CCCCN)NC(=O)[C@H](C)NC(=O)[C@H](C)NC(=O)[C@H](CCC(N)=O)NC(=O)[C@H](CCC(=O)O)NC(=O)[C@H](CCC(=O)O)NC(=O)[C@H](CC(C)C)NC(=O)[C@H](Cc1ccc(O)cc1)NC(=O)[C@H](CO)NC(=O)[C@H](CO)NC(=O)[C@@H](NC(=O)[C@H](CC(=O)O)NC(=O)[C@H](CO)NC(=O)[C@@H](NC(=O)[C@H](Cc1ccccc1)NC(=O)[C@@H](NC(=O)CNC(=O)[C@H](CCC(=O)O)NC(=O)C(C)(C)NC(=O)[C@@H](N)Cc1c[nH]cn1)[C@@H](C)O)[C@@H](C)O)C(C)C)[C@@H](C)CC)C(C)C)C(N)=O)C(=O)O [GLP-1RA/tesaglitazar, GLP-1 Aib2 Glu16 CEX Lys40/tesaglitazar conjugate]	314	131	0.505	278	20.5	0.174	37.5	2.54		26.8	21.2	246	1.1	87.6	21.6	41.7	40.3	likewise not changed
